Test results: PMC3070698

Tests used:
[1] = molecular target: T1, TLR9 tagged at the C terminus with enhanced green fluorescent protein, Q9NR96; experiment: photon counting histogram (PCH); live HEK 293 cells expressing TLR9-GFP; molecular brightness compared with GFP monomer; two-component global fit with the brightness of GFP monomer and GFP dimer fixed; bin size 50 µs; without DNA, with CpG DNA or with non-CpG DNA; monomer to dimer; conditions: remark: other sources report otherwise
T1 chain: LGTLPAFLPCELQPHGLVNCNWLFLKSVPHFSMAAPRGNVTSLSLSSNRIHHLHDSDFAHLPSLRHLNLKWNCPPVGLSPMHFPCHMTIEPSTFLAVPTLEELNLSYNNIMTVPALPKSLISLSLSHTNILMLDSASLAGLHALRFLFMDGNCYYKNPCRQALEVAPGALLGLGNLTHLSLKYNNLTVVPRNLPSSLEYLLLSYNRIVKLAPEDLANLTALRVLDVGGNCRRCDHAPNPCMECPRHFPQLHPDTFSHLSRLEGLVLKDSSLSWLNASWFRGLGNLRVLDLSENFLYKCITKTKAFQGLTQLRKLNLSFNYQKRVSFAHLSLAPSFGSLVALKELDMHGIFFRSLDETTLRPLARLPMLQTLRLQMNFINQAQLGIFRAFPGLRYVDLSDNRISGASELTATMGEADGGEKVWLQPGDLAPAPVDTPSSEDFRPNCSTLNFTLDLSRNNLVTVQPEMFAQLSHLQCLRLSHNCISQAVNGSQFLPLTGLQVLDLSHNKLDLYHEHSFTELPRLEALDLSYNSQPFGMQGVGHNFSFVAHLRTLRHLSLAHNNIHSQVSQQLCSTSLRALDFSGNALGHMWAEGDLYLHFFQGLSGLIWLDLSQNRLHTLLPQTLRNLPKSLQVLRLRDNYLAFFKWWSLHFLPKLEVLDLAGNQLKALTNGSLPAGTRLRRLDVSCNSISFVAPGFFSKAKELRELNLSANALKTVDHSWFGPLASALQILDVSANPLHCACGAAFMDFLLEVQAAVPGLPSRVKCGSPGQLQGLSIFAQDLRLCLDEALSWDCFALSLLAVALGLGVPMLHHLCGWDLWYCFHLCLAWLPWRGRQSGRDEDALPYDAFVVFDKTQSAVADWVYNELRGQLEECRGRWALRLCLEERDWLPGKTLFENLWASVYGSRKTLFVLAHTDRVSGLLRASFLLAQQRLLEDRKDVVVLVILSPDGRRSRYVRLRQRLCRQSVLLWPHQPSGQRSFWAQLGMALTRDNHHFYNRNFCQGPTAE

[2] = molecular target: T1, TLR9 tagged at the C terminus with …; experiment: two-dimensional photon counting histogram (2dPCH); live HEK 293 cells expressing TLR9-GFP, incubated with Cy5-labelled CpG or non-CpG DNA; single-component fit; brightness in the green and red channels; bin size 50 µs; conditions: remark: other sources report otherwise

percent of TLR9 as dimers (no DNA) [1]: 79.1% | percent of TLR9 as dimers (with CpG DNA) [1]: 82.6% | percent of TLR9 as dimers (with non-CpG DNA) [1]: 82.6% | stoichiometry N [1]: 2 | stoichiometry N [2]: 2
B1: TLR9 tagged at the C terminus with enhanced green fluorescent protein, Q9NR96 26-1032 (receptor)
chain: T1 chain
